Target: hGITR ECD hFc (human, UniProt Q9Y5U5 26-161, Thr45Ala)
Experiment: SPR

hGITR ECD hFc, sequence (Q9Y5U5 26-161 T45A): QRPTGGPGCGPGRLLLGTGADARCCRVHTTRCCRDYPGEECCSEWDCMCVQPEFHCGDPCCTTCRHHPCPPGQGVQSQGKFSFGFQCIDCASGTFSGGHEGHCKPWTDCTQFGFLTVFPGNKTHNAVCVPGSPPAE

Row | Binder | koff [s⁻¹]
1 | hab076 (antibody, V domains shown) VH: QVQLVESGGGVVQPGRSLRLSCAASGFTFSSYGMHWVRQAPGKGLEWVAVIWYETSNKYYADSVKGRFTISRDNSKNTLYLQMNSLRAEDTAVYYCARYGASSGWYWYFDLWGRGTLVTVSS VL: DIQLTQSPSFLSASVGDRVTITCRASQGISSYLAWYQQKPGKAPKLLIYAASTLQSGVPSRFSGSGSGTEFTLTISSLQPEDFATYCCQQLNSYPFTFGQGTKLEIK | 0.000684
2 | hab070e1 (antibody, V domains shown) VH: QVQLVESGGGVVQPGRSLRLSCAASGFTFSSYGMHWVRQAPGKGLEWVAVIWYETSNKFYVDSVKGRFTISRDNSKNTLYLQMNSLRAEDTAVYYCARYGASSGWYWYFDLWGRGTLVTVSS VL: DIQLTQSPSFLSASVGDRVTITCRASQGISSFLAWYQQKPGKAPKLLIYAASTLQSGVPSRFSGSGSGTEFTLTISSLQPEDFATYYCQQLNSYPFTFGQGTKLEIK | 0.000381
3 | hab064 (antibody, V domains shown) VH: QVQLVESGGGVVQPGRSLRLSCAASGFTFSSYGMHWVRQAPGKGLEWVAVIWYETSNKYYADSVKGRFTISRDNSKNTLYLQMNNLRAEDTAVYYCARYGGNSGWYWYFDLWGRGTLVTVSS VL: DIQLTQSPSFLSASVGDRVTITCRASQGISSFLAWYQQKPGTAPKLLIYAASTLQSGVPSRFSGSGSGTEFTLTISSLQPEDFATYCCQQLNSYPFTFGQGTKLEIK | 0.000315
4 | hab070 (antibody, V domains shown) VH: QVQLVESGGGVVQPGRSLRLSCAASGFTFSSYGMHWVRQAPGKGLEWVAVIWYETSNKFYVDSVKGRFTISRDNSKNTLYLQMNSLRAEDTAVYYCARYGASSGWYWYFDLWGRGTLVTVSS VL: DIQLTQSPSFLSASVGDRVTITCRASQGISSFLAWYQQKPGKAPKLLIYAASTLQSGVPSRFSGSGSGTEFTLTISSLQPEDFATYCCQQLNSYPFTFGQGTKLEIK | 0.000185
5 | hab019e2 (antibody, V domains shown) VH: QVQLVESGGGVVQPGRSLRLSCAASGFTFSSYGMHWVRQAPGKGLEWVAVIWYAGSRKFYADSVEGRFTISRDNSKNTLYLQMNSLRAEDTAVYYCARGGSLEGGFFYYGMDVWGQGTTVTVSS VL: not shown | 0.00023
6 | hab019 (antibody, V domains shown) VH: QVQLVESGGGVVQPGRSLRLSCAASGFTFSSYGMHWVRQAPGKGLEWVAVIWYAGSRKFYADSVEGRFTISRDNSKNTLYLQMSSVRPEDTAVYYCARGGSLDGGFFYYGMDVWGQGTTVTVSS VL: not shown | 0.000205
